From publication PMC13376213, “Systematic discovery of motif-based interactions of the auxiliary domains of USP family deubiquitinases” (Nature Communications, 2026)

T1: CYLD CAP-Gly3 domain, GST-tagged, Q9NQC7
T1 chain: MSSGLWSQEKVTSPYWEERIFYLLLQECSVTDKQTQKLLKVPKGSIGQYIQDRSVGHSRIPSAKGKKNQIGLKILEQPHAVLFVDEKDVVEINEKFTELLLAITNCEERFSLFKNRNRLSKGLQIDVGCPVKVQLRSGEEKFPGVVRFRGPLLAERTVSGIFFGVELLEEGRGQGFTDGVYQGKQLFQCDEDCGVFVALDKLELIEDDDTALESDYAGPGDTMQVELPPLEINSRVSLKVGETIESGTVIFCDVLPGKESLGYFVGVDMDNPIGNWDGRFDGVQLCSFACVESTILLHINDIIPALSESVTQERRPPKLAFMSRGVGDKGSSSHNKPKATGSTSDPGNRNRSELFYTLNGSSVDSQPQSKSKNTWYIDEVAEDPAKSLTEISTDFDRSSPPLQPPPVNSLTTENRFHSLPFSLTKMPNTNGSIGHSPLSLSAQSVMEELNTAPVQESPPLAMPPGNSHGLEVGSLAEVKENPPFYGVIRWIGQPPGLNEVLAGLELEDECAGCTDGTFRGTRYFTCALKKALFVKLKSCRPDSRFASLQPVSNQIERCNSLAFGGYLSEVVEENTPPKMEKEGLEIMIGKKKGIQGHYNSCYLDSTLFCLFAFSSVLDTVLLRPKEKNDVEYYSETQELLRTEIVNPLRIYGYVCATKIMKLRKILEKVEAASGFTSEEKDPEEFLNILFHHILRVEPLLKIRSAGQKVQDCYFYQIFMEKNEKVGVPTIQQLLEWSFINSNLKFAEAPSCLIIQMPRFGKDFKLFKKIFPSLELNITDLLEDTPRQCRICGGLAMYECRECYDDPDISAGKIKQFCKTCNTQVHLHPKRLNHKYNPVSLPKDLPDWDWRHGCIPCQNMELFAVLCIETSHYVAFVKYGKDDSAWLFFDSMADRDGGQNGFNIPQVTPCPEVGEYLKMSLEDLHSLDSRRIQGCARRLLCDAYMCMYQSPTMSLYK

T2: CYLD CAP-Gly1 domain, GST-tagged, Q9NQC7
T2 chain: T1 chain


Experiments:
[1] = target: T1, CYLD CAP-Gly3 domain, GST-tagged, Q9NQC7; assay: peptide SPOT array alanine scanning; settings: chain shown with the change;; parent: est. 0; read off a plot
[2] = target: T2, CYLD CAP-Gly1 domain, GST-tagged, Q9NQC7; assay: peptide SPOT array alanine scanning; settings: chain shown with the change;; parent: est. 0; read off a plot

Row | other: signal change (%) [1] | other: signal change (%) [2] | Binder
1 |  | -5% | ADAELQRMEQEAERRR [RBM25_(558-573) peptide, P49756 P558A]
2 |  | -25% | PDAELQRMEAEAERRR [RBM25_(558-573) peptide, P49756 Q567A]
3 |  | -35% | PDAELARMEQEAERRR [RBM25_(558-573) peptide, P49756 Q563A]
4 |  | -95% | PDAEAQRMEQEAERRR [RBM25_(558-573) peptide, P49756 L562A]
5 |  | -65% | PDAELQAMEQEAERRR [RBM25_(558-573) peptide, P49756 R564A]
6 |  | -95% | PDAELQRMEQEAERRA [RBM25_(558-573) peptide, P49756 R573A]
7 |  | -10% | PDAELQRMEQEAARRR [RBM25_(558-573) peptide, P49756 E570A]
8 |  | -15% | PDAELQRMEQAAERRR [RBM25_(558-573) peptide, P49756 E568A]
9 |  | -40% | PDAELQRMEQEAEARR [RBM25_(558-573) peptide, P49756 R571A]
10 |  | -90% | PDAELQRAEQEAERRR [RBM25_(558-573) peptide, P49756 M565A]

Further lines, the binder ahead of its results:

Row | Binder | other: signal change (%) [1] | other: signal change (%) [2]
11 | GGVFKAEIYIPLQEED [HECTD4_(3003-3018) peptide, Q9Y4D8 D3008A] | -95% | 
12 | GGVFKDEIYIPLQAED [HECTD4_(3003-3018) peptide, Q9Y4D8 E3016A] | -25% | 
13 | GGVAKDEIYIPLQEED [HECTD4_(3003-3018) peptide, Q9Y4D8 F3006A] | -95% | 
14 | GAVFKDEIYIPLQEED [HECTD4_(3003-3018) peptide, Q9Y4D8 G3004A] | -95% | 
15 | GGVFADEIYIPLQEED [HECTD4_(3003-3018) peptide, Q9Y4D8 K3007A] | -95% | 
16 | AGVFKDEIYIPLQEED [HECTD4_(3003-3018) peptide, Q9Y4D8 G3003A] | -5% | 
17 | GGVFKDAIYIPLQEED [HECTD4_(3003-3018) peptide, Q9Y4D8 E3009A] | -95% | 
18 | GGVFKDEIYAPLQEED [HECTD4_(3003-3018) peptide, Q9Y4D8 I3012A] | -90% | 
19 | GGVFKDEIYIPLQEEA [HECTD4_(3003-3018) peptide, Q9Y4D8 D3018A] | 35% | 
20 | PDAELQRMAQEAERRR [RBM25_(558-573) peptide, P49756 E566A] |  | -15%
21 | GGAFKDEIYIPLQEED [HECTD4_(3003-3018) peptide, Q9Y4D8 V3005A] | -70% | 
22 | GGVFKDEIYIPAQEED [HECTD4_(3003-3018) peptide, Q9Y4D8 L3014A] | 50% | 
23 | GGVFKDEIYIALQEED [HECTD4_(3003-3018) peptide, Q9Y4D8 P3013A] | -85% | 
24 | GGVFKDEIYIPLQEAD [HECTD4_(3003-3018) peptide, Q9Y4D8 E3017A] | 55% | 
25 | GGVFKDEAYIPLQEED [HECTD4_(3003-3018) peptide, Q9Y4D8 I3010A] | -95% | 
26 | GGVFKDEIAIPLQEED [HECTD4_(3003-3018) peptide, Q9Y4D8 Y3011A] | -95% | 
27 | GGVFKDEIYIPLAEED [HECTD4_(3003-3018) peptide, Q9Y4D8 Q3015A] | -15% | 
28 | PAAELQRMEQEAERRR [RBM25_(558-573) peptide, P49756 D559A] |  | -10%
